The values below come from PMC11542851 (PLOS Pathogens, 2024).

In experiment [1] the target is T1, SARS-CoV-2 RBD subunit (recombinant) (SARS-CoV-2 Wuhan-Hu-1, UniProt P0DTC2).
Experiment [2] has as its target T1, SARS-CoV-2 RBD subunit (recombinant). In words: ELISA. Particulars: both partners purified. In general terms: An ELISA detects its analyte on a solid surface through an enzyme-linked reagent.

Like-named read-outs stand apart in the source and are kept apart here.

B1: C68.286 (antibody, V domains shown)
VH: QSTLKESGPALVKPTQTLTLTCTFSGFSLSTSGMCVSWIRQPPGKALEWLARIDWDDDKYYSTSLETRLTISKDTSKNQVVLTMTNMDPVDTATYYCARMTVAGPSLDYWGQGTLVTVSS
VL: not shown
Consider B1, for which the binding result in experiment [1] is given as “binds”.

B2: C68.136 (antibody, V domains shown)
VH: EVQLLESGGGLVQPGGSLRLSCAASGFTFSIYAMSWVRQAPGKGLEWVSGISGSGGSTYYADSVKGRFTLSRDNSKNTLFLQMNSLRAEDTAVYYCAKGEGSVVVVSAGVWGKGTTVTVSS
VL: DIQLTQSPSSLSASVGDRITITCQASQDISKSLNWYQQKPGKAPKVLIYDASNLETGVPSRFSGSGSGTDFTFTISSLQPEDIATYYCQQYDNLRLTFGGGTKVEIK
As to B2, the binding result in experiment [1] is “binds”.

B3: C68.180 (antibody, V domains shown)
VH: EVQLVESGGGLVKPGGSLRLSCAASGFTFIDYHMSWIRQAPGKGLEWVSYITTTSSYANYADSVKGRFTISRDNAKNSLFLQMNSLRADDTAVYYCARDRGYDLRFDYWGQGTLVTVSS
VL: DIQMTQSPSSLSASVGDRVTITCQASQGISNYLNWYQKKPGKAPKLLIYDASNLKTGVPSRFSGSGSGTDFTFTISSLQPEDIATYYCQQYDSLPLTFGGGTKVEIK
B3: the binding result in experiment [1] is listed as “binds”.

B4: C68.121 (antibody, V domains shown)
VH: EVQLVESGGGLVKPGGSLRLSCAASGFTFSDYYMTWIRQAPGKGLEWVSKITNSNSYTHYADSVKGRFTISRDNAKNSLFLHMNSLRAEDTAVYYCARAIWIGYPDDYYMDVWGKGTTVTVSS
VL: SYELTQPPSVSVSPGQTARITCSGDTLPNQYVYWYQQKPGQAPVLLIYKDTERPSGIPERVSGSTSGTTVTLTISGVQAEDEADYYCQSADSSGTSFGGGTKLTVL
As to B4, in experiment [2], the binding result is “binds”.

B5: C68.138 (antibody, V domains shown)
VH: EVQLVQSGAEVKKPGESLRISCKGSGYSSTNYWISWVRQMPGKGLEWMGRIDLSDSYTNYSPSFQGHVTISADKSISTAYLQWSSLKASDTAIYYCARLLTTVTTDWFDPWGQGTLVTVSS
VL: DIQMTQSPSSLSASVGDRVTITCRASQSISNYLNWYQQKPGKAPKLLIYTASSLQSGVPSRFSGSGSGTDFTLSISSLKPEDFATYFCQQSYNAPPYTFGQGTKLQIK
Regarding B5, the binding result in experiment [1] was “binds”.

B6: C68.100 (antibody, V domains shown)
VH: EVQLVQSGAEVKKPGESLRISCKGSGYIFNSYWIIWVRQMPGKGLEWMGRIDPSDSYTNYSPSFQGHVTMSVDKSINTAYLQWSSLKASDTAMYYCARVRFGELSWDTFDYWGQGTLVTVSS
VL: DIQVTQSPSSLSASVGDRVTITCRASQSMSYYLNWYQQKPGKAPKLLISAASSLQSGVPSRFSGSGSGTDFTLTISSLQPEDFATYYCQQSYSTPYTFGQGTKLEIK
Take B6: the binding result in experiment [1] is reported as “binds”.

B7: C68.123 (antibody, V domains shown)
VH: EVQLVESGGGLVQPGGSLRLSCSASGFTFSSYTLHWVRQAPGKGLEYVSSISSNGGSTYYADSVKGRFTISRDNSKNTLFLQMSSLRAEDTAIYYCVKGVWLHDFWSGYPSRWGQGTPVTVSS
VL: DIQLTQSPSTLSASVGDRVTITCRASQSISNWLAWYQQKPGKAPNLLIYDASSLESGVPSRFSGSGSGTEFTLTISSLQPDDFATYYCQQYNSYPWTFGQGSKVDIK
For B7, the binding result in experiment [1] is recorded as “binds”.

B8: C68.220 (antibody, V domains shown)
VH: QVQLLQSGAEVKKPGASVKVSCKASGYTFTIYAMHLVRQAPGQRLEWMGWINTGNGDTKYSQKFQGRVTITRDTSASTAYMELSSLRSEDTAVYYCAISGSRHFQVDYFDYWGQGTLVTVSS
VL: DIQMTQSPSTLSASVGDRVTITCRASQSISRWLAWYQQKPGKAPKLLIYDASSFESGVPSRFSGRGSGTEFTLTISSLQPDDFATYYCQQYKSYPWTFGQGTKVEIK
As for B8, the binding result in experiment [1] is given as “binds”.

B9: C68.236 (antibody, V domains shown)
VH: QVQVVQSGAELKKPGASVKVSCKAPGHTFTIYAMHWVRQAPGQRLEWMGWINAGNGDTKYSQKFQGRVTITRDTSASTAYMELSSLRSEDTAVYYCASSGSRRFQVDYFDYWGQGTLVTVSS
VL: DIQLTQSPSTLSASVGDRVTITCRASQSIRSWLAWYQQKPGKAPKLLIYDASSLESGVPSRFSGSGSGTEFTLTISSLQPDDFATYYCQQYNSYPWTFGQGTKVEIK
Consider B9, for which the binding result in experiment [1] was “binds”.

B10: C68.194 (antibody, V domains shown)
VH: QVQLVQSGAELKRPGASVKVSCKAPGHTFTIYAMHWVRQAPGQRPEWMGWINAGNGDTKYSQKFQGRVTITRDTSASTAYMELSSLRSEDTAVYYCATSGSLRFQVDYFDHWGQGTLVTVSS
VL: DIQLTQSPSTLSASVGDRVTITCRASQSISSWLAWYRQKPGKAPKLLIYDASNLESGVPSRFSGSGSGTEFTLTISSLQPDDFATYYCQQYNSYPWTFGQGTKVEIK
B10: the binding result in experiment [1] is listed as “binds”.

B11: C68.263 (antibody, V domains shown)
VH: EVQLVESGGGVVQPGRSLRLSCAASGFTFSTYAMHWVRQAPGKGLEWVAVISFDGSNTYYADSVKGRFTISRDNSKNTLYLQMNSLRAEDTAVYYCAKDSYYSDRSDYYWRSYGYFGLWGQGTLVTVSS
VL: DIQLTQSPSTLSASVGDRVTITCRASQSISSWLAWYQQKPGKAPKLLIYDASSLESGVPSRFSGSGSGTEFTLTISSLQPDDLATYYCQQYRSYSGTFGQGTKVEIK
Take B11: in experiment [1], the binding result is listed as “binds”.

B12: C68.175 (antibody, V domains shown)
VH: EVQLLESGGGLVQPGGSLRLSCAASGFTFSSYAMSWVRQAPGKGLEWVSGISGSGGSTYYADSVKGRFTISRDNSKNTLHLQMNSLRAEDTAVYYCAKGSRWNPDYFDYWGQGTLVTVSS
VL: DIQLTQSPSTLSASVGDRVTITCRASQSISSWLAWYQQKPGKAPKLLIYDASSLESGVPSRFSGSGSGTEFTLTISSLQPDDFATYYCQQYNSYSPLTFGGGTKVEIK
Take B12: the binding result in experiment [2] was “binds”.

B13: C68.233 (antibody, V domains shown)
VH: QVQLVQSGPEVKKPGTSVKVSCKASGFTFTTSAVQWVRQARGLRLEWIGWIVVGSGNTNYGQKFQERVTITRDMSTSTAYMELSSLRSEDTAVYYCAAPHCNRTNCHDGFDIWGQGTMVTVS
VL: EIVLTQSPGTLPLSPGERATLSCRASQSVRSSYLAWYQQKPGQAPRLLIYGASSRATGIPDRFSGSGSGTDFILTISRLEPEDFAVYSCQQYGSSPWTFGQGTKVEIK
As to B13, the binding result in experiment [1] is on record as “binds”.

B14: C68.279 (antibody, V domains shown)
VH: EVQLVQSGAEVKKPGESLKISCKGSGYSFNYYWIGWVRQMPGKGLEWMGIIYPGDSDARYSPSFQGQVTISADKSISTAYLQWSSLKASDTAMYYCGRLVGYSHDLYFDYWGQGTLVTVSS
VL: not shown
As to B14, the binding result in experiment [1] was “binds”.

B15: C68.285 (antibody, V domains shown)
VH: QVQLVQSGAEVKKPGASVKVSCKASGYTFSNYFMHWVRQAPGQGLEWMGIINPSGVSTSYAQKFQGRITMTRDTSTSTVYMELSSLRSEDTAVYYCAFEMGAAPFDYWGQGTLVTVSS
VL: DIQLTQSPSFLSASVGDRVTITCRASQGISSYLAWYQQKPGKAPKVLIYDASTLQSGVPSRFSGSGSGTEFTLTISSLQPEDFATYYCQQLNTYPQGLTFGGGTKVEIK
On to B15, for which the binding result in experiment [1] is recorded as “binds”.

B16: C68.256 (antibody, V domains shown)
VH: QVQLQESGPGLVKPSETLSLTCSVSGGSISSSSSYWGWIRQPPGKGLEWIGNIDYSGSTYYNPSLKSRVTISVDTSKNQFSLKLSSVTAADTAVYFCARGADYGPYFDYWGQGALLTVSS
VL: QSALTQPASVSGSPGQSITISCTGTSSDVGSYNLVSWYQHHPGKAPKLMIYEVSKRPSGVSNRLSGSKSGNTASLTISGLQAEDEADYYCSSYAGSSTFVVFGGGTKLTVL
For B16, the binding result in experiment [1] was “binds”.

B17: C68.225 (antibody, V domains shown)
VH: EVQLVQSGAEVKKPGESLRISCKGSGYSFTNYWISWVRQMPGKGLEWMGRIDPSDSYTDYSPSFQGHVTISTDKSISTAYLQWSSLKASDTAMYYCARPRGIAAVGTGYNWLDPWGQGTLVIVSS
VL: DIQMTQSPSTLSASVGDRVTITCRASQSINSWLAWYQQKPGKAPKLLIYDASSLESGVPSRFSGSGSGTEFTLTISSLQPADFATYYCQQYNALYTFGQGTKLEIK
Consider B17, for which the binding result in experiment [1] is “binds”.

B18: C68.281 (antibody, V domains shown)
VH: QVQLVQSGAEVRKPGASVKVSCKASGYNFTSYYMHWVRQAPGQGLEWMGIINPSDGSASYAQKFQGRVTMTRDSSTSTVYMELSSLRSDDTAVYFCARGGRILQWFPYFFDYWGQGTLVTVSS
VL: EIVLTQSPGTLSLSPGERATLSCRASQSVSIRYLAWYQQKPGQAPRLLIYGASSRATGIPDRFSGSGSGTDFTLTISRLEPEDFAVYYCQQYETFGQGTKVEIK
For B18, the binding result in experiment [1] was “binds”.

B19: C68.170 (antibody, V domains shown)
VH: QVQLQESGPGLVKPSQTLSLTCTVSGGSISSGGYYWSWIRQHPKKDLEWIGYIYNSGSTYYNPSLKSRVTISIDTTKNQFSLKLSSVTAADTALYYCARSVGAAAQWGGEFDYWGQGTLVTVSS
VL: DIQLTQSPSSLSASVGDRVTITCQASQDISNYLNWYQQKPGKAPKLLIYDVFILQAGVPSRFSGSGSGTDFTFTISSLQPEDIATYYCQQYNHLITFGGGTKVEIK
Turning to B19, the binding result in experiment [1] was “binds”.

B20: C68.83 (antibody, V domains shown)
VH: EVQLVESGGGVVQPGRSLRLSCAASGFIFSSYGMHWVRQAPGKGLEWVAVIWYDGSNKYYADSVKGRFTISRDNSKNTLYLQMNSLRAEDTAVYYCARDDPEVGCSGGSCYYYYDMDVWGQGTTVTVSS
VL: SYELTQPPSVSVSPGQTARITCSGDALPKQHAHWYQQKPGQAPVLVIYKDIERPSGIPERFSGSSSGTTVTLTISGVQAEDEADYYCQSADSSVTYVVFGGGTKLTVL
Regarding B20, the binding result in experiment [2] is on record as “binds”.

B21: C68.304 (antibody, V domains shown)
VH: EVQLVESGGGVVQPGRSLRLSCAASGFIFSNYDMHWVRQAPGKGLEWVAVIWYDGSNKYYADSVKGRFTISRDNSKNTLYLQMNSLRADDTAMYYCSRHDSGTYYYFDSWGQGTLVTVSS
VL: LTVVTQEPSFSVSPGGTVTLTCGLSSGSVSTSYYPSWYQQTPGQPPRTLIYTTITRSSGVPDRFSGSILGNKAALTITGAQGDDESDYYCVLYMGSGNWVFGGGTKLTVL
As to B21, the binding result in experiment [1] is “binds”.

B22: C68.102 (antibody, V domains shown)
VH: QLQLQESGPGLLKPSETLSLTCTVSGGSISSSRYYWGWIRQPPGKGLEWIGSVYYSGTTYYNPSLKSRVTISVDASKNQFSLRLSSVSAADTAVYYCARRLGAIWDWGQGTRVTVSS
VL: DIQLTQSPSSLSASVGDRVTITCRASQGISNSLAWYQQKPGKAPKLLLYAASTLESGVPSRFSGSGSGTDYTLTISSLQPEDFAAYYCQQYYSTPTFGQGTKVEIK
Turning to B22, the binding result in experiment [1] is listed as “binds”.
